Assay results from article doi:10.1101/663153 (bioRxiv, 2019).

Target: T1, CysLTR2-GFP10-1D4 L129Q (human, UniProt Q9NS75 1-346, L129Q)
T1 sequence (looked up): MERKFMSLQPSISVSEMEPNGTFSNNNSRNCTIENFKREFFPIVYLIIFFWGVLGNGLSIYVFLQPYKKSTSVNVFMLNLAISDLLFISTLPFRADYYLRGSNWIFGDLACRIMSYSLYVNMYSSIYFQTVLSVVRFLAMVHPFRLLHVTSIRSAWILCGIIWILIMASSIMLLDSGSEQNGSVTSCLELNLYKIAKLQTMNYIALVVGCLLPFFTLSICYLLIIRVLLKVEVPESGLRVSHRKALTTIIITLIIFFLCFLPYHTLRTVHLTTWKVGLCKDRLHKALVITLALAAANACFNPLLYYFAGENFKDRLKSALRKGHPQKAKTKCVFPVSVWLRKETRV
Test: FRET or BRET

B1: β-Arrestin1-RLuc3 (natural protein, UniProt P49407 1-418, looked up)
chain: MGDKGTRVFKKASPNGKLTVYLGKRDFVDHIDLVDPVDGVVLVDPEYLKERRVYVTLTCAFRYGREDLDVLGLTFRKDLFVANVQSFPPAPEDKKPLTRLQERLIKKLGEHAYPFTFEIPPNLPCSVTLQPGPEDTGKACGVDYEVKAFCAENLEEKIHKRNSVRLVIRKVQYAPERPGPQPTAETTRQFLMSDKPLHLEASLDKEIYYHGEPISVNVHVTNNTNKTVKKIKISVRQYADICLFNTAQYKCPVAMEEADDTVAPSSTFCKVYTLTPFLANNREKRGLALDGKLKHEDTNLASSTLLREGANREILGIIVSYKVKVKLVVSRGGLLGDLASSDVAVELPFTLMHPKPKEEPPHREVPENETPVDTNLIELDTNDDDIVFEDFARQRLKGMKDDKEEEEDGTGSPQLNNR
  ligand-independent net BRET^2 ratio: 0.00151 ± 0.0004
